Article PMC11538452

Target: A9 anti-CD40 antibody, deimmunized variant
Test: SPR; wildtype against deimmunized variant on the CD40 protein (Supplementary Fig. 3B); format of this experiment not told in what was shown

Sequence of human CD40-Fc (P25942 21-193): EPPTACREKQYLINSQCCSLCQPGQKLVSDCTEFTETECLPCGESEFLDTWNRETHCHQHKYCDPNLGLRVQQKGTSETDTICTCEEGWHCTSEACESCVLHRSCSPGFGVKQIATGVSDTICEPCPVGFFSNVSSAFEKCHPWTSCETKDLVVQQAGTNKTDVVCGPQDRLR

Kd: 1.6 nM
Substance: human CD40-Fc (from UniProt P25942 21-193) (Fc fusion)
